One block for each binder: values may come before it. Where no end group is shown, it is not given here.
Legend:
[1] = target: RSK2 (44–367) (human, UniProt P51812 44-367); experiment: ITC
[2] = target: RSK2 (46–346) (human, UniProt P51812 46-346); experiment: crystal structure

binding result [1]: binds
B1: SPRED2 (11–181) (domain or fragment)
chain: SYIVRVKAVVMTRDDSSGGWFPQEGGGISRVGVCKVMHPEGNGRSGFLIHGERQKDKLVVLECYVRKDLVYTKANPTFHHWKVDNRKFGLTFQSPADARAFDRGVRKAIEDLIEGSTTSSSTIHNEAELGDDDVFTTATDSSSNSSQKREQPTRTISSPTSCEHRRIYTLG

Kd [1]: 20 µM
Binder: Ac-ELGDDDVFTTATDSSS [SPRED2 (138–153) peptide]

binding result [2]: binds
binding result [1]: binds
Binder: Ac-STIHNEAELGDDDVFTTATDSSSNSSQKRE [SPRED2 (131–160) peptide]

Kd [1]: ~9 µM
B2: SPRED2 (104–181) (domain or fragment)
chain: SPADARAFDRGVRKAIEDLIEGSTTSSSTIHNEAELGDDDVFTTATDSSSNSSQKREQPTRTISSPTSCEHRRIYTLG

Kd [1]: 36 µM
Binder: Ac-GDDDVFTTATDS [SPRED2 (140–151) peptide]
